From FireProtDB (doi:10.1006/jmbi.2001.4521)

B1: Growth factor receptor-bound protein 2, Q08012 (parent)
chain: MEAIAKHDFSATADDELSFRKTQILKILNMEDDSNWYRAELDGKEGLIPSNYIEMKNHDWYYGRITRADAEKLLSNKHEGAFLIRISESSPGDFSLSVKCPDGVQHFKVLRDAQSKFFLWVVKFNSLNELVEYHRTASVSRSQDVKLRDMIPEEMLVQALYDFVPQESGELDFRRGDVITVTDRSDENWWNGEIGNRKGIFPATYVTPYHS

Variants of: B1
Conditions: Drosophila melanogaster, pH 6, Thermal, CD, phosphate 50 mM, Na2SO4 0.4 M, structure 2A36, whole UniProt chain shown; for unfolding free energy: 25 °C

Variant | Tm [°C] | change of melting temperature, mutant - wild type (higher = more stable) [°C] | unfolding free energy [kcal/mol]
T22G Q23D | 88.9 | 25.2 | 
T22K | 65 | 1.3 | 1.8
T22L | 58 | -5.7 | 
T22G | 84.8 | 21.1 | 4.2
T22D | 73.1 | 9.4 | 3.3
T22F | 66.7 | 3 | 3.1
T22N |  |  | 3.1
T22S | 63.5 | -0.2 | 2.4
T22A | 66.9 | 3.2 | 2.2
